Paper PMC5476825, “Towards repurposing the yeast peroxisome for compartmentalizing heterologous metabolic pathways” (Nature Communications, 2016)
Blank lines part the entries; values can stand above or below the binder they belong to. Primed or numbered codes have the meaning given here. Ends that are not written are not given here. 5FAM′ = 5-carboxyfluorescein

What was measured:
[1] = molecular target: T1, His6-Pex5c, C-terminal fragment (residues 295-612) of S. cerevisiae PEX5 (S. cerevisiae, UniProt P35056 295-612); experiment: fluorescence polarisation; competition: 375 nM Pex5c and 20 nM 5FAM-…, unlabelled … (4 mM to 3.8 nM) or … (0.5 mM to 0.47 nM) added; 50 mM HEPES pH 7.4, 100 mM NaCl, 0.05% Tween-20; equilibrated 16 h at 4 °C; fit with equation 17 of Roehrl et al.; conditions: both partners purified
T1 construct: Pex5p (PEX5), PTS1 import receptor, S. cerevisiae, C-terminal fragment residues 295-612; Plasmid was a gift of Brooke M. Gardner; also called Pex5p C-terminal fragment; C-terminal truncation of Pex5p; not shown: His6, N-terminal, kept
T1 sequence (looked up): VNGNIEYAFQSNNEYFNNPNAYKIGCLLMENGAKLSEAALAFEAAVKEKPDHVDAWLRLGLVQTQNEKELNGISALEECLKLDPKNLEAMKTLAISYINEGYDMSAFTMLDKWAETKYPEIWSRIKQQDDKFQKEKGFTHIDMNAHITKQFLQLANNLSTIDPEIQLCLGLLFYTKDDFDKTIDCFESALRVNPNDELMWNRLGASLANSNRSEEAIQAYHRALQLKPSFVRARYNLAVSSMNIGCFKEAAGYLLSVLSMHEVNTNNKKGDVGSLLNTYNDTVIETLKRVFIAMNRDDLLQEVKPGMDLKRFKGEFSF

[2] = molecular target: T1, His6-Pex5c, C-terminal fragment …; experiment: fluorescence polarisation; direct titration: His6-Pex5C from 6.5 uM downward in twofold increments against 20 nM 5FAM-…; 50 mM HEPES pH 7.4, 100 mM NaCl, 0.05% Tween-20; equilibrated 16 h at 4 °C; anisotropy converted to fraction bound; conditions: both partners purified

Kd [1]: 176000 ± 17300 nM
B1: PTS1 peptide (DELYKGSKL) (peptide)
peptide: DELYKGSKL
notes: peptide that results from fusion of the canonical PTS1 (SKL) to the C-terminus of YFP; source: synthetic peptide, bought: Elim Biopharmaceuticals Inc

Kd [1]: 800 ± 100 nM
B2: ePTS1 peptide (LGRGRRSKL) (peptide)
peptide: LGRGRRSKL
notes: ePTS1: linker LGRGRR selected from a randomized six-residue linker library, followed by the canonical PTS1 SKL; also called enhanced PTS1; source: synthetic peptide, bought: Elim Biopharmaceuticals Inc

Kd [2]: 355 ± 6.38 nM
B3: 5-Carboxyfluorescein-LGRGRRSKL (peptide)
peptide: {5FAM′}-LGRGRRSKL
notes: ePTS1: linker LGRGRR selected from a randomized six-residue linker library, followed by the canonical PTS1 SKL; also called fluorescein-tagged ePTS1 peptide; source: synthetic peptide, bought: Elim Biopharmaceuticals Inc
